± gives the standard error. Variants at the floor of the assay were thinned out.
B1: glmS ribozyme (parent)
chain: AUAAAAGCGCCAGAACUACAGAAAUGUAGUUGACGAGGAGGAGGUUUAUCGAAUUUUCGGCGGAUGCCUCCAAA

Key:
Details in all cases: with glucosamine-6-phosphate
glucosamine-6-phosphate [1] = variants of: B1; test: self-cleavage kobs at 640 uM GlcN6P; higher = faster cleavage; RNA array
Method in brief: (§1)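 The measurements used barcoded ribozyme variants on sequenced MiSeq chips, transcribed in situ by E. coli RNA polymerase and tracked at 37 °C with a hybridised Cy3 probe. Glucosamine-6-phosphate, 40 μM to 10 mM in HEPES/KCl/Mg(OAc)2 buffer, was flowed in while tiles were imaged over ~14 h. Baseline-normalised signals, also normalised to non-cleaving reference variants, gave per-tile medians that were fit to one- or two-exponential decays for kobs. kcat and KM resulted from weighted Michaelis–Menten fits across concentrations.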

glucosamine-6-phosphate [2] = variants of: B1; test: self-cleavage kobs at 2500 uM GlcN6P; higher = faster cleavage; RNA array
Method in brief: as §1

glucosamine-6-phosphate [3] = variants of: B1; test: self-cleavage kobs at 10000 uM GlcN6P; higher = faster cleavage; RNA array
Method in brief: as §1

Variant: A12C U30C U57G U65C
- self-cleavage kobs at 640 uM GlcN6P (glucosamine-6-phosphate [1]): < 1e-05 s⁻¹

Variant: C16A G63U C67U
- self-cleavage kobs at 640 uM GlcN6P (glucosamine-6-phosphate [1]): 0.000112 ± 4.7e-05 s⁻¹

Variant: A12U C50U
- self-cleavage kobs at 640 uM GlcN6P (glucosamine-6-phosphate [1]): 4.86e-05 ± 1.1e-05 s⁻¹
- self-cleavage kobs at 2500 uM GlcN6P (glucosamine-6-phosphate [2]): 9.52e-05 ± 1.7e-05 s⁻¹
- self-cleavage kobs at 10000 uM GlcN6P (glucosamine-6-phosphate [3]): 0.00036 ± 4.5e-05 s⁻¹

Variant: A15C A33C G59C
- self-cleavage kobs at 640 uM GlcN6P (glucosamine-6-phosphate [1]): < 1e-05 s⁻¹
- self-cleavage kobs at 2500 uM GlcN6P (glucosamine-6-phosphate [2]): < 1e-05 s⁻¹

Variant: G13U C34G U45C U47A
- self-cleavage kobs at 640 uM GlcN6P (glucosamine-6-phosphate [1]): < 1e-05 s⁻¹
- self-cleavage kobs at 2500 uM GlcN6P (glucosamine-6-phosphate [2]): < 1e-05 s⁻¹

Variant: G13A C16G G29U G37A G40U
- self-cleavage kobs at 640 uM GlcN6P (glucosamine-6-phosphate [1]): < 1e-05 s⁻¹

Variant: G13A G40A G44U C67U C68G
- self-cleavage kobs at 640 uM GlcN6P (glucosamine-6-phosphate [1]): < 1e-05 s⁻¹
- self-cleavage kobs at 2500 uM GlcN6P (glucosamine-6-phosphate [2]): < 1e-05 s⁻¹
- self-cleavage kobs at 10000 uM GlcN6P (glucosamine-6-phosphate [3]): < 1e-05 s⁻¹

Variant: A14C G41A G62U C70G
- self-cleavage kobs at 640 uM GlcN6P (glucosamine-6-phosphate [1]): < 1e-05 s⁻¹
- self-cleavage kobs at 2500 uM GlcN6P (glucosamine-6-phosphate [2]): < 1e-05 s⁻¹

Variant: A15G G43U A48U C50U
- self-cleavage kobs at 640 uM GlcN6P (glucosamine-6-phosphate [1]): < 1e-05 s⁻¹

Variant: A15G A48U C50U G60A C68G
- self-cleavage kobs at 640 uM GlcN6P (glucosamine-6-phosphate [1]): 0.000775 ± 0.00022 s⁻¹

Variant: A15C G51A G59C
- self-cleavage kobs at 640 uM GlcN6P (glucosamine-6-phosphate [1]): < 1e-05 s⁻¹
- self-cleavage kobs at 2500 uM GlcN6P (glucosamine-6-phosphate [2]): < 1e-05 s⁻¹

Variant: A12U U30C A53C
- self-cleavage kobs at 640 uM GlcN6P (glucosamine-6-phosphate [1]): 0.000316 ± 0.0001 s⁻¹
- self-cleavage kobs at 2500 uM GlcN6P (glucosamine-6-phosphate [2]): 0.000389 ± 0.00012 s⁻¹
- self-cleavage kobs at 10000 uM GlcN6P (glucosamine-6-phosphate [3]): 0.00132 ± 0.00056 s⁻¹

Variant: A15U U31A C34A
- self-cleavage kobs at 640 uM GlcN6P (glucosamine-6-phosphate [1]): < 1e-05 s⁻¹
- self-cleavage kobs at 2500 uM GlcN6P (glucosamine-6-phosphate [2]): < 1e-05 s⁻¹

Variant: A14G G40U C61G
- self-cleavage kobs at 640 uM GlcN6P (glucosamine-6-phosphate [1]): < 1e-05 s⁻¹
- self-cleavage kobs at 2500 uM GlcN6P (glucosamine-6-phosphate [2]): < 1e-05 s⁻¹

Variant: C16U C34U G66U C68G
- self-cleavage kobs at 640 uM GlcN6P (glucosamine-6-phosphate [1]): 0.000354 ± 0.0001 s⁻¹

Variant: G13C G40C A42C
- self-cleavage kobs at 640 uM GlcN6P (glucosamine-6-phosphate [1]): < 1e-05 s⁻¹
- self-cleavage kobs at 2500 uM GlcN6P (glucosamine-6-phosphate [2]): < 1e-05 s⁻¹

Variant: G13A U57A A64C C68A
- self-cleavage kobs at 640 uM GlcN6P (glucosamine-6-phosphate [1]): 0.000763 ± 0.00019 s⁻¹

Variant: G13C A39C A42U
- self-cleavage kobs at 640 uM GlcN6P (glucosamine-6-phosphate [1]): < 1e-05 s⁻¹

Variant: G13U A14G G37A U45A
- self-cleavage kobs at 640 uM GlcN6P (glucosamine-6-phosphate [1]): 9.84e-05 ± 2.1e-05 s⁻¹
- self-cleavage kobs at 2500 uM GlcN6P (glucosamine-6-phosphate [2]): 0.000193 ± 3.6e-05 s⁻¹

Variant: A15C U30A U31G C34G C67G
- self-cleavage kobs at 640 uM GlcN6P (glucosamine-6-phosphate [1]): 5.05e-05 ± 2.3e-05 s⁻¹

Variant: A12C U47C U65C
- self-cleavage kobs at 640 uM GlcN6P (glucosamine-6-phosphate [1]): < 1e-05 s⁻¹

Variant: C16G A33U A52U C61U C71U
- self-cleavage kobs at 640 uM GlcN6P (glucosamine-6-phosphate [1]): < 1e-05 s⁻¹

Variant: A14C A53U C67U
- self-cleavage kobs at 640 uM GlcN6P (glucosamine-6-phosphate [1]): 0.000153 ± 4.6e-05 s⁻¹
- self-cleavage kobs at 2500 uM GlcN6P (glucosamine-6-phosphate [2]): 0.000626 ± 0.0002 s⁻¹

Variant: A14C G38U G44U C68G
- self-cleavage kobs at 640 uM GlcN6P (glucosamine-6-phosphate [1]): < 1e-05 s⁻¹
- self-cleavage kobs at 2500 uM GlcN6P (glucosamine-6-phosphate [2]): < 1e-05 s⁻¹

Variant: A12G G59C A64U
- self-cleavage kobs at 640 uM GlcN6P (glucosamine-6-phosphate [1]): < 1e-05 s⁻¹

Variant: A15U U45A A53C
- self-cleavage kobs at 640 uM GlcN6P (glucosamine-6-phosphate [1]): 0.000941 ± 0.00022 s⁻¹

Variant: G13U G62C C70U
- self-cleavage kobs at 640 uM GlcN6P (glucosamine-6-phosphate [1]): < 1e-05 s⁻¹

Variant: G13A A52U C70G
- self-cleavage kobs at 640 uM GlcN6P (glucosamine-6-phosphate [1]): < 1e-05 s⁻¹

Variant: G13C G41U C71U
- self-cleavage kobs at 640 uM GlcN6P (glucosamine-6-phosphate [1]): < 1e-05 s⁻¹

Variant: A15C G44C C50U
- self-cleavage kobs at 640 uM GlcN6P (glucosamine-6-phosphate [1]): < 1e-05 s⁻¹
- self-cleavage kobs at 2500 uM GlcN6P (glucosamine-6-phosphate [2]): < 1e-05 s⁻¹

Variant: A12G G43C A53G
- self-cleavage kobs at 640 uM GlcN6P (glucosamine-6-phosphate [1]): < 1e-05 s⁻¹
- self-cleavage kobs at 2500 uM GlcN6P (glucosamine-6-phosphate [2]): < 1e-05 s⁻¹

Variant: A14U U46C C70U
- self-cleavage kobs at 640 uM GlcN6P (glucosamine-6-phosphate [1]): 0.000206 ± 5e-05 s⁻¹

Variant: A14G G21U U31G G38U U57C
- self-cleavage kobs at 640 uM GlcN6P (glucosamine-6-phosphate [1]): < 1e-05 s⁻¹
- self-cleavage kobs at 2500 uM GlcN6P (glucosamine-6-phosphate [2]): < 1e-05 s⁻¹

Source: the supplement of paper PMC7125110
